The target of experiment [1] is Ubiquitin carboxyl-terminal hydrolase isozyme L1 (human) (UniProt P09936). The experiment is described as follows: SPR. (In general: SPR reads the build-up and loss of mass on a sensor chip optically.)
Another experiment addresses Cofilin-1 (human) (UniProt P23528). Description: SPR.

Sequence of Ubiquitin carboxyl-terminal hydrolase isozyme L1 (human) (P09936 whole entry): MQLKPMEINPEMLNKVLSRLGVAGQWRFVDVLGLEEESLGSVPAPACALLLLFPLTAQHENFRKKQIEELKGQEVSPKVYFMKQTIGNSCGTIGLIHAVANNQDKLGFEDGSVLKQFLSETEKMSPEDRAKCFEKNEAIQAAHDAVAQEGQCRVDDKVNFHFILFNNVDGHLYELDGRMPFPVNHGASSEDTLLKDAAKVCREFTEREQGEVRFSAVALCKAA
Sequence of Cofilin-1 (human) (P23528 whole entry): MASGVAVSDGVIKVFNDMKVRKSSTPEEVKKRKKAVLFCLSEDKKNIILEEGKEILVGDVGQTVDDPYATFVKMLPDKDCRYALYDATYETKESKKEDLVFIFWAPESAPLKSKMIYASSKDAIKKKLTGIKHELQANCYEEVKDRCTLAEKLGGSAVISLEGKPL

By Kd is commonly meant the equilibrium constant for the complex coming apart. Low readings indicate tighter binding, high ones weaker binding. Regarding “α-synuclein oligomer (from UniProt P37840 1-140) (natural protein)”, the Kd in experiment [1] amounted to 600 nM; in the experiment with Cofilin-1 (human), 290 nM.
